According to US20060165683A1, “Methods and compositions for control of bone formation via modulation of sympathetic tone” (priority 2001, published 2006):

B1: leptin: polypeptide hormone, product of the ob gene; human leptin (Sigma) infused ICV (protein)
chain: VPIQKVQDDTKTLIKTIVTRINDISHTQSVSAKQRVTGLDFIPGLHPILSLSKMDQTLAVYQQVLTSLPSQNVLQIANDLENLRDLLHLLAFSKSCSLPQTSGLQKPESLDGVLEASLYSTEVVALSRLQGSLQDILQQLDVSPEC

Assays:
[1] = tested on: murine primary osteoblasts; test: cAMP production in murine primary osteoblasts; assay type: cell-based, mouse; conditions: confluent cultures, 100 μM IBMX, 5 min treatment; PTH as positive control
Description: Primary osteoblast cultures were established as previously described (see, e.g., Ducy et al., 2000, Cell 100: 197-207) and maintained in αMEM/0.1 mg/ml ascorbic acid supplemented with 10% FBS. SaOS-2 were grown in MEM/10% FBS. For cAMP assay confluent cultures were incubated with serum free medium containing 100 μM IBMX (3-isobutyl-1-methylxanthine, Sigma) for 8 minutes before PBS, PTH(1-34) (Bachem), isoproterenol, norepinephrine, phenylephrine (Sigma) or propranolol were added for 5 min. Intracellular cAMP concentration was measured by immunoassay (R&D Systems). For gene expression analyses, primary osteoblasts were treated for 72 hours with appropriate drugs in 0.1% FBS. Hormone serum levels were quantified using immunoassays kits from Peninsula Laboratories (Insulin) or Alpco Diagnostics (leptin). Deoxypyridinoline cross-links and Creatinine were measured in morning urines using the Quidel kits. a1(I) leptin bioactivity was verified by cotransfection of 293 cells expressing ObRb with a STAT3-responsive-luc reporter construct, pSVβgal plasmid and a1(I) leptin expression vector or mock. Twenty-four hours later luciferase and β-galactosidase activities were measured. Data represents ratios of luciferase/β-galactosidase activities, and values are mean of 6 independent transfection experiments.
For a sympathetic regulation of bone formation to exist several requirements have to be fulfilled. The first one is that functional adrenergic receptors are present on osteoblasts. […] Immunohistochemical analysis of long bones from transgenic mice expressing LacZ under the control of the osteoblast-specific fragment of the a1(I) collagen promoter verified the presence of β2-adrenergic receptors on osteoblasts (FIG. 13B). No other adrenergic receptor subtype could be detected. […] Electron micrographs confirmed the presence of unmyelinated peripheral nerve axons coursing through the marrow adjacent to bone trabeculae and to osteoblasts (FIG. 13E). β-adrenergic receptors are G-coupled receptors that signal through the cAMP pathway (see, e.g., Benovic et al., 1988, Annu Rev Cell Biol 4:405-428). Thus, to assess the biologic relevance of the presence of β2-adrenergic receptors on osteoblasts, these cells were treated with isoproterenol, a β-adrenergic agonist, alone or in the presence of propranolol, a β-adrenergic receptor antagonist; with norepinephrine, the natural ligand of β-adrenergic receptors; with phenylephrine, an α-adrenergic agonist or with vehicle and measured cAMP production. As a positive control, parathyroid hormone (PTH) that binds to another G-coupled receptor present in osteoblasts was used (Gardella & Juppner, 2001, Trends Endocrinol Metab 12:210-217.). […] These effects were abolished by propranolol treatment. […]

[2] = tested on: propranolol-treated wt mice; test: Leptin ICV infusion in propranolol-treated mice; assay type: in vivo, mouse; conditions: centrally delivered leptin
Description: (§1) Wildtype (C57BL/6J) and mutant (C57BL/6J A^y/a, C57BL/6J ob/ob) mice were obtained from the Jackson laboratory and adrenal medullectomized mice from Harlan Tecklad laboratory. Dbh−/− mice were rescued as previously described (Thomas et al., 1998, Neurochem 70:2468-2476). Isoproterenol (Sigma) was injected intraperitoneally (ip) once daily for 6 weeks at 30 mg/kg (wt) or 3 mg/kg (ob/ob). Propranolol (Sigma) was added to the drinking water at a concentration of 0.5 g/l. For ICV infusion, a 28-gauge cannula (Brain infusion kit II, Alza) was implanted into the third ventricle as previously described infusing human leptin (Sigma) at 8 ng/hr or MT-II at 125 ng/hr (Phoenix Pharmaceuticals) for 28 days (see, e.g., Ducy et al., 2000, Cell 100: 197-207). The cannula was connected to an osmotic pump (Alza) placed in the dorsal subcutaneous space of the animal. For parabiosis longitudinal incisions were made in the skin and in the peritoneal cavity along one side on each mouse. Edges of the incisions were connected by suture to induce coelioanastomosis. Cross-circulation was quantified by injecting 1 ml/kg 0.25% Evans blue into the tail vein of one mouse of the parabiosed pair. After 30 min. blood was collected from both mice by retroorbital bleeding and the blood exchange rate was calculated according to standard techniques (see, e.g., Harris & Martin, 1984, Am J Physiol 247:R380-386). […]

[3] = tested on: Dbh-deficient mice; test: Leptin ICV infusion in Dbh-deficient mice; assay type: in vivo, mouse
Description: as §1

[4] = tested on: wildtype mice; test: Central (ICV) infusion of leptin in wildtype mice; assay type: in vivo, mouse
Description: as §1

Molecule	cAMP production [1]	bone mass [2]	fat pads [2]	bone mass [3]	gonadal fat pad [3]	bone mass / bone volume and bone formation parameters [4]
CC(C)NCC(O)c1ccc(O)c(O)c1 (stereo not drawn) [isoproterenol]	increased	–	–	–	–	–
B1	–	did not affect	disappearance	failed to decrease	near disappearance	decreased
